Measurements as given in US20260226142A1 (MAX PLANCK GESELLSCHAFT ZUR F RDERUNG DER WISSENSCHAFTEN E V, published 2026).
Like-named read-outs stand apart in the source and are kept apart here.

Experiments:
[1] = target: T1, Cys-HLA (Staphylococcus aureus)
[2] = target: T1, Cys-HLA; remark: listed apart in the source
[3] = target: T1, Cys-HLA; remark: listed apart in the source
[4] = target: T1, Cys-HLA; remark: listed apart in the source

B1: Ma7A07 (VHH)
VHH: QVQLVESGGGLVQPGGSLRLSCAASGFTLGDYTLGWFRQAPGKQREGVSSIASSALSIYIADSVKGRFTISRDDAKNTIYLHMNNLKPEDTGVYYCARGVDSWRWVPSAMDLWGKGTLVTVSS
- Kd [1]: 0.006 nM
- Kd [2]: ≤ 0.01 nM

B2: Ma8H03 (VHH)
VHH: QVQLVESGGGLVHPGGSLRLSCAASGSSLDHYVIGWFRQVPGKQREGISCISSGGSTNYADSVKGRFTVSRDNVKSTVYLQMNSLAPDDSAEYYCAAQRNLGNFCVLGWLEYDDWGQGTQVTVSS
- Kd [1]: ≤ 0.001 nM
- Kd [2]: ≤ 0.01 nM

B3: Bm28C04 (VHH)
VHH: QVQLVESGGGSVQPGNSLRLSCKVSGRTFNSYALGWFRRRPGDQRDFVASIIRSTGGTSYADSVKGRFTISYDNVQNTVDLQMNSLEPEDTAIYYCAGGDGHIYAFGYDYWGQGTQVTVSS
- Kd [3]: 0.04 nM
- Kd [4]: ~0.05 nM
- Kd [2]: ≤ 0.01 nM

B4: Bm28C09 (VHH)
VHH: QVQLVESGGSVVQAGGSLRLSCTASGRNFNSYAMGWFRRPPGEQRDFIAAIIRSTGKTTYADSDSVKGRFTISKDSSGNTVYLQMNNLKPEDTAIYYCAGGDAGPYAFGYDYWGQGTQVTVSS
- Kd [3]: 0.015 nM
- Kd [2]: ≤ 0.01 nM

B5: Bm28A12 (VHH)
VHH: QVQLVESGGGLVQAGGSLRLSCVVSGRALSSYNLAWFRQSPGKEREWIATIMPSADKAHYPDFLEGRFTISGDNTENTLYLQMNSLKPEDTAIYYCAAREPSYYHALFEYEYNLWGQGTQVTVSS
- Kd [3]: 0.13 nM
- Kd [2]: ≤ 0.01 nM

B6: Ma7F02 (VHH)
VHH: QVQLVESGGGLVQAGGSLRLSCTVSGSIDSLHTMGWFRQAPGKKRDFVAVVSWSGGNTYYPDYAKGRFTISRDNTKNTVYLQMNSLKPEDTAIYYCAAESGSGNYWKIWEHEFDSWGQGTQVTVSS
- Kd [4]: ~0.05 nM
- Kd [2]: 0.04 nM

B7: Ma7D06 (VHH)
VHH: QVQLVESGGGLVQAGGSLRLSCAASGSISGIDTMAWFRQIPGKDREFVAVIKWAAGSTWYPDFVKGRFTVSRDNAKNMVYLQMDSVKPEDTAIYYCAAAAGEKYYYRLFPYEYDYWGQGTQVTVSS
- Kd [2]: 0.06 nM

B8: Ma7C11 (VHH)
VHH: QVQLVESGGGLVRAGGSLRLSCAASGSISSVNGMGWFRQAPGKERLFVAQVSLLDSSTYYADSVKGRFTISRDDAKNTMYLQMNNVRPEETAVYYCAATKLRIGTAFSSEYDYWGQGTQVTVSS
- Kd [2]: 0.3 nM

B9: Ma8E03 (VHH)
VHH: QVQLVESGGGLVHPGGSLRLSCAASGSSLDHYVIGWFRQVPGKEREGVSCISRSGGSTNYADSVKGRFTVSRDNVKNMVYLQMNSLEPEDSAEYYCAAQRNLGNFCVLGWLEYDDWGQGTQVTVSS
- Kd [2]: ≤ 0.01 nM

B10: Ma8G02 (VHH)
VHH: QVQLVESGGGLVLPGGSLRLSCAASGSSLDHYVIGWFRQYPGKEREGVSCISRSGGSTNYADSVKGRFTVSRDNVKNMVYLQMNSLEPEDSAEYYCAAQRNLGNFCVLGWVEYDDWGQGTQVTVSS
- Kd [2]: ≤ 0.01 nM

B11: Ma8A05 (VHH)
VHH: QVQLVESGGGLVQPGGSLRLSCAASPASGFTLDLYTIAWFLQAPGKEREGVSAISLSDEITYYSDAVKGRFTISRDSAKNTVFLQMDRLKPEDTGVYYCAIGAFDFILKEADADYWGQGTQVTVSS
- Kd [2]: 0.6 nM

B12: Ma8D05 (VHH)
VHH: QVQLVESGGGLVQPGGSLRLSCAASPASGFTLDLYTIAWFLQAPGKEREGVSAISLSDEITYYSDTVKGRFTISRDSAKNTVFLQMDRLKPEDTGVYYCAIGAFDFILKEADADYWGQGTQVTVSS
- Kd [2]: 1 nM

B13: Ma31A12 (VHH)
VHH: QVQLVESGGGLVQPGGSLRLSCAASAASGFTLDLYTIAWFLQAPGKEREGVSAISLSDEITYYSDAVKGRFTISRDSAKNTVFLQMDRLKPEDTGVYYCAIGAFDFILKEVDADYWGQGTQVTVSS
- Kd [2]: 0.065 nM

B14: Ma31B06 (VHH)
VHH: QVQLVQSGGGLVQPGGTLRLSCAASPASGFTLDLYTIAWFLQAPGKEREGVSAISLSDEITYYSDAVKGRFTISRDSAKNTVFLQMDRLKPEDTGVYYCAIGAFDFILKEADADYWGQGTQVTVSS
- Kd [2]: 0.075 nM

B15: Ma7A08 (VHH)
VHH: QVQLVESGGGLVQPGGSLTLSCAASGFTLGDYTLGWFRQAPGKQREGVSSIASSVLSVYIADSVKGRFTISRDDAKNTIYLHMNNLKPEDTGVYYCARGVDSWRWVPSAMDLWGKGTLVTVSS
- Kd [2]: ≤ 0.01 nM

B16: Ma8D07 (VHH)
VHH: QVQLVESGGGLVQPGGSLRLSCAASESIYKLNAMGWYRQAPGKELELVTTISSGGSTFYTDPVKGRFTISTDNAKNTVYLQMRSLKPEDTAMYYCAANPTYNHYSARGQGTQVTVSS
- Kd [2]: 0.8 nM

B17: Ma8D08 (VHH)
VHH: QVQLVESGGGFVQAGGSLRLSCAASESIYKLNAMGWYRQAPGKELELVTTISSGGSTFYTDPVKGRFTISTDNAKNTVYLQMRSLKPEDTAMYYCAANPTYNHYSARGQGTQVTVSS
- Kd [2]: 1 nM

B18: Bm28H07 (VHH)
VHH: QVQLVESGGGSVQPGNSLRLSCKVSGRTFNSYALGWFRRRPGDQRDFVASIIRSTGGTSYADSVKGRFTISYDNVQNTVDLQMSSLEPEDTAIYYCAGGDGHIYAFGYDYWGQGTQVTVSS
- Kd [2]: ≤ 0.01 nM

B19: Ma7B03 (VHH)
VHH: QVQLVESGGGLVQPGGSLRLSCAASGFTLSNYYVGWFRQAPGKQREGVSSIGSSDLSIYIADSVKGRFTISRDNAKNTIYLHMNNLKPDDTGVYYCARGTDSWRWVPSAMDLWGKGTQVTVSS
- Kd [2]: ≤ 0.01 nM

B20: Ma7B12 (VHH)
VHH: QVQLVESGGGLVQPGGSLRLSCAASGFTLGDYTLGWFRQAPGKQREGVSSIASSALSIYIADSVKGRFTISRDNAKNTVYLHMNNLKPEDTGVYYCARGIDNWRWVPSAMDLWGKGTQVTVSS
- Kd [2]: ≤ 0.01 nM

B21: Bm28F09 (VHH)
VHH: QVQLVESGGGLVEPGGSLTLSCAASGFTSKNYYIGWFRQAPGKYREGVASIGASDGSLYIADSVKGRFTISSDNAKNTVYLHPRNLKPEDSGVYYCATGRDSWRWVPSAMDYWGKGIQVTVSS
- Kd [2]: 0.15 nM

B22: Bm28H01 (VHH)
VHH: QVQLVESGGGLVQPGGSLTLSCAASGFTLGDRTLGWFRQVAGKQREGVASIASGVLSAYIADSVKGRFTISRDDAKNTIYLHMNNLKPDDTGVYYCARGVDSWRWVPSTMDLWGKGILVTVSS
- Kd [2]: ≤ 0.01 nM

B23: Ma7B01 (VHH)
VHH: QVQLVESGGGLVQAGDSLSLSCAASGRTFSNYAMGWFRQAPGKERHFVAVINQIGDSTWYPDFAKGRFTISRDNAKNTLYLQMNSLKPEDTAVYYCAATDPRSYWRIWPHEYGYWGQGTQVTVSS
- Kd [2]: 0.05 nM

B24: Ma7E01 (VHH)
VHH: QVQLVESGGGSVQAGDSLSLSCVASERTFSNYAMGWFRQAPGKERHFVAVINPIGEETWYPDFAKGRFTISRDNAKNTLYLQMNSLKPEDTAVYYCAATDPRSYWRIWEHEFDYWGQGTQVTVSS
- Kd [2]: ≤ 0.01 nM

B25: Ma7C02 (VHH)
VHH: QVQLVESGGGLVQAGGSLRLSCAASGRTFSDYAMGWFRQAAGKDRDFVAVITRSGDSTYYPDSTKGRFTISRDNAKNTMYLQMNSLKPEDTARYYCAATDPTNYWRIWEHEFDYWGQGTQVTVSS
- Kd [2]: 0.09 nM
